Test results from patent US20170022281A1 (AbbVie / Abbott, published 2017).
Changes are numbered by the printed parent chain.

T1: cyno PRLR (Biacore antigen) (cyno, UniProt A0A2K5WXK1 25-234)
T1 construct: also called cyPRLR
T1 sequence: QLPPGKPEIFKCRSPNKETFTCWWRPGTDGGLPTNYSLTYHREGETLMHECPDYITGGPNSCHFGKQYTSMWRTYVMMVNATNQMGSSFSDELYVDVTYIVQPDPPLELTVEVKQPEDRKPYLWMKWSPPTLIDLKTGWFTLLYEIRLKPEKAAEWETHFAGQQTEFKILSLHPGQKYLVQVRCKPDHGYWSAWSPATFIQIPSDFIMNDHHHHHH

T2: human PRLR (Biacore antigen) (human, UniProt P16471 25-234, limits assumed)
T2 construct: The construct injected over captured antibody is not described (a soluble form is likely); also called huPRLR
T2 sequence: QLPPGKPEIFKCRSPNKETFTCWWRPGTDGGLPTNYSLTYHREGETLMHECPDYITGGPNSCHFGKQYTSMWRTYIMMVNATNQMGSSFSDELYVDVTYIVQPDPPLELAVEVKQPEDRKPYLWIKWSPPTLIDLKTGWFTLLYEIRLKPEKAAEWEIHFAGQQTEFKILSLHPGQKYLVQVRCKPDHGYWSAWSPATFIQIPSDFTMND

T3: cyno PRLR ECD-his6 protein (cyno)
T3 chain: T1 sequence

T4: human PRLR ECD-Fc fusion protein (human, UniProt P16471 25-233)
T4 construct: not shown: Fc region (captured by goat anti-human Fc)
T4 sequence: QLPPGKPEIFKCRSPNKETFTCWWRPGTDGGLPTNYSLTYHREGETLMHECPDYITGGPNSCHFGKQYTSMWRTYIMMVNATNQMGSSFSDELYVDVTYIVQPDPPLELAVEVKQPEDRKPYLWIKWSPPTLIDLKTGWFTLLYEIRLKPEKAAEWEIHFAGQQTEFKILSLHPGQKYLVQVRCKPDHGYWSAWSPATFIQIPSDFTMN

T5: human PRLR on cells (human, UniProt P16471 25-622)
T5 sequence: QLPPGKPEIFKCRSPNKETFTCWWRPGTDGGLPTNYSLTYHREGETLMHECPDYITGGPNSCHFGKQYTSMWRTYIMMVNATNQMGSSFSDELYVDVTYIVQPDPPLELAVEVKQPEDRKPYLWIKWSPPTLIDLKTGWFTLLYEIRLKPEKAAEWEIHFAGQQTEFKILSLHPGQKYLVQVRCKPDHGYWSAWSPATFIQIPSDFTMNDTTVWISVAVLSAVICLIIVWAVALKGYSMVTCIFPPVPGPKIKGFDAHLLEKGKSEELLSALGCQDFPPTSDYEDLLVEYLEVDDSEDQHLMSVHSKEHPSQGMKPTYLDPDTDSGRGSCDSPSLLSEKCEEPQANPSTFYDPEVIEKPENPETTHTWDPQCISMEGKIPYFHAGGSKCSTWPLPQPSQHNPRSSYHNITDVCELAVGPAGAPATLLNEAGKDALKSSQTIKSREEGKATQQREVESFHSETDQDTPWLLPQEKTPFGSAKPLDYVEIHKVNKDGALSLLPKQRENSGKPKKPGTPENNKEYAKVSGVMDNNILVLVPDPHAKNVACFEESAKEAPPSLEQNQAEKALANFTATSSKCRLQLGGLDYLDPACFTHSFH

T6: mouse PRLR on Baf3-mPRLR cells (mouse, UniProt Q08501 20-608)
T6 sequence (looked up): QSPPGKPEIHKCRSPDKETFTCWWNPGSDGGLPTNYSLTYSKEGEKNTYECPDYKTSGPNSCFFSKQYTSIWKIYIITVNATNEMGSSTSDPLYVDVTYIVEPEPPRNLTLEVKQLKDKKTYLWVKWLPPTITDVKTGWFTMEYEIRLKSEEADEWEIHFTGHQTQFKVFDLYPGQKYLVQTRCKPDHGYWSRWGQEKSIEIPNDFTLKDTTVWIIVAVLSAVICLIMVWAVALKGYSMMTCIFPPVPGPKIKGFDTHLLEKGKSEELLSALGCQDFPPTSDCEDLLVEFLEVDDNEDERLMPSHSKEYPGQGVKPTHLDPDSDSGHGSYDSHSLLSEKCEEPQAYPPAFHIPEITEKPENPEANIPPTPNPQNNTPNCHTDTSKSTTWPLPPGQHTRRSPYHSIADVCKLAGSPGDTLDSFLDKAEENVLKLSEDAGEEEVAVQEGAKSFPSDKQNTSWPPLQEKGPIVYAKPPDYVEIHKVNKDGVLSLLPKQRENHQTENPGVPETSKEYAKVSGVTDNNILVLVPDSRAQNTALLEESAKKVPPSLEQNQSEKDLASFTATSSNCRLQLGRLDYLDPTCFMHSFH

B1: Ab53 (antibody, human IgG1, kappa, V domains shown)
VH: EVQLVQSGAEVKKPGSSVKVSCKASGYTFTSYWIHWVRQAPGQGLEWIGEIDPSDSYTNYNQKFKGRVTITVDKSTSTAYMELSSLRSEDTAVYYCARSFFTNWFAYWGQGTLVTVSS
VL: DVVMTQTPLSLSVTPGQPASISCRSSQSLVHSNGNTYLHWYLQKPGQSPQLLIYKVSNRFSGVPDRFSGSGSGTDFTLKISRVEAEDVGVYFCSQSTHVPFTFGGGTKVEIKR
notes: humanized from Ab7 (back mutations on Ab36); G1; also called Ab4 HC.1b.2 and Ab4 LC.1a
B2: Ab44 (antibody, human IgG1, kappa, V domains shown)
VH: EVQLVQSGAEVKKPGASVKVSCKASGYTFTDYNIHWVRQAPGQGLEWMGYIYPNNDGTGYNQKFKSRVTMTTDTSTSTAYMELRSLRSDDTAVYYCARGDGNYVGDMDYWGQGTTVTVSS
VL: DIQMTQSPSSLSASVGDRVTITCRASENIYSYLAWYQQKPGKAPKLLIYNAKTLAEGVPSRFSGSGSGTDFTLTISSLQPEDFATYYCQHHYATPFTFGQGTKLEIKR
notes: humanized from Ab8; G1; also called Ab3 HC.1 and Ab3 LC.1
B3: Ab52 (antibody, human IgG1, kappa, V domains shown)
VH: B2 VH with M48I, N61A, F64L, K65Q, S66G, T72V
VL: B2 VL with I48V
notes: humanized from Ab8; G1; also called Ab3 HC.1b and Ab3 LC.1b
B4: Ab51 (antibody, human IgG1, kappa, V domains shown)
VH: B2 VH with M48I, N61A, F64L, K65Q, S66G, T72V
VL: B2 VL with A43P, I48V
notes: humanized from Ab8; G1; also called Ab3 HC.1b and Ab3 LC.1a
B5: Ab50 (antibody, human IgG1, kappa, V domains shown)
VH: B2 VH with M48I, N61A, F64L, K65Q, S66G, T72V
VL: B2 VL
notes: humanized from Ab8; G1; also called Ab3 HC.1b and Ab3 LC.1
B6: chAb9 (antibody, human IgG1, kappa, V domains shown)
VH: EVQLQQSGPELVRPGASVKISCKASGYSFTDYNMHWVKQSHGKSLEWIGYIYPYNGGAGYNQKFKSKATMNVGISSSTAYMELRSLTSEDSAVYYCARGDGNYVGDMDYWGQGTSVTVSS
VL: DIQMTQSPASLSASVGETVTITCRASENIYSYLAWYQQKQGKSPQLLVYNAKTLAEGVPSRFSGSGSGTQFSLKINSLQPEDFGSYYCQHHSGTPFTFGSGTKLEIKT
B7: Ab32 (antibody, human IgG1, kappa)
heavy: not shown
light: DIVMTQTPLSLSVTPGQPASISCRSSQRLVHSNGNTYLHWYLQKPGQSPQLLIYKVSNRFSGVPDRFSGSGSGTDFTLKISRVEAEDVGVYYCSQSTHVPWTFGGGTKVEIKRTVAAPSVFIFPPSDEQLKSGTASVVCLLNNFYPREAKVQWKVDNALQSGNSQESVTEQDSKDSTYSLSSTLTLSKADYEKHKVYACEVTHQGLSSPVTKSFNRGEC
B8: Ab41 (antibody, human IgG1, kappa)
heavy: not shown
light: B7 light with R28S, W101F
B9: Ab34 (antibody, human IgG1, kappa)
heavy: not shown
light: B7 light with I2V
B10: Ab33 (antibody, human IgG1, kappa, V domains shown)
VH: EVQLVQSGAEVKKPGSSVKVSCKASGGTFTSFWMHWVRQAPGQGLEWIGVIDPSDTYTNYAQKFQGRVTITVDESTSTAYMELSSLRSEDTAVYYCARGDYSNWFTYWGQGTLVTVSS
VL: B1 VL with S28R, F101W
B11: Ab43 (antibody, human IgG1, kappa)
heavy: not shown
light: B7 light with I2V, R28S, W101F
B12: Ab42 (antibody, human IgG1, kappa, V domains shown)
VH: B1 VH with Y27G, N61A, K65Q
VL: B1 VL
B13: Ab22 (antibody, human IgG1, kappa, V domains shown)
VH: EVQLVQSGAEVKKPGSSVKVSCKASGGTFTTYWMHWVRQAPGQGLEWIGEIDPSDSYSNYAQKFQGRVTITVDKSTSTAYMELSSLRSEDTAVYYCARNGGLGPAWFSYWGQGTLVTVSS
VL: DIQMTQSPSSVSASVGDRVTITCKASQYVGTAVAWYQQKPGKAPKLLIYSASNRYTGVPSRFSGSGSGTDFTLTISSLQPEDFATYYCQQYSSYPWTFGGGTKVEIKR
B14: Ab25 (antibody, human IgG1, kappa, V domains shown)
VH: B13 VH
VL: EIVMTQSPATLSVSPGERATLSCKASQYVGTAVAWYQQKPGQSPRLLIYSASNRYTGVPARFSDSGSGTEFTLTISSLQSEDFAVYFCQQYSSYPWTFGGGTKVEIKR
B15: Ab23 (antibody, human IgG1, kappa, V domains shown)
VH: B13 VH
VL: B13 VL with A43S, G64D, Y87F
B16: Ab24 (antibody, human IgG1, kappa, V domains shown)
VH: B13 VH
VL: B14 VL with S43A, V58I, D64G, F87Y

Biological target: T1, cyno PRLR (Biacore antigen)
Assay: SPR Biacore
Procedure, shortened: (§1)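 Association rate, dissociation rate and dissociation constant were measured by surface plasmon resonance on a Biacore instrument. PRLR antigen was tested at 600 nM, 66.67 nM and 7.41 nM, a 3-point, 9-fold dilution series. Constants came from a 1:1 binding model fit (local Rmax, mass-transport term included) in Biacore T200 Evaluation Software.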

Binder | Kd | koff | kon
B1 | 7.8 nM | 0.00089 s⁻¹ | 110000 M⁻¹ s⁻¹

Biological target: T2, human PRLR (Biacore antigen)
Assay: SPR Biacore
Procedure, shortened: as §1

Binder | Kd | koff | kon
B1 | 8.5 nM | 0.001 s⁻¹ | 120000 M⁻¹ s⁻¹

Biological target: T3, cyno PRLR ECD-his6 protein
Assay: ELISA on ECD
Description: (§2) Plates were blocked for 1 hour with Superblock (Pierce) and washed (3×) with wash buffer (lx PBS (pH 7.4), 0.05% Tween 20). ECD proteins were bound to the appropriate antibody (1 hour) in binding buffer (wash buffer plus 10% Superblock), washed (3×, wash buffer), and then incubated with serial dilutions of antibodies (1 hour) in binding buffer. After washing (3×, wash buffer), secondary antibodies conjugated to HRP were bound (1 hour) in binding buffer, washed (3×, wash buffer), and incubated with TMB substrate (Pierce) to develop signal for 3-5 minutes, stopped with 2N H₂SO₄ and scanned at […]. Curves were fit with GraphPad 5 (Prizm) and EC50's were determined with curve fitting function of GraphPad 5.

Binder | EC50
B2 | 0.0945 nM

Biological target: T4, human PRLR ECD-Fc fusion protein
Assay: ELISA on ECD
Description: as §2

Binder | EC50
B2 | 0.0435 nM
B3 | 0.0913 nM
B4 | 0.287 nM
B5 | 0.109 nM

Biological target: T5, human PRLR on cells
Assay: cell-based or functional assay

Binder | Baf3-hPRLR proliferation IC50
B6 | 0.2 mg/L
B7 | > 30 mg/L
B8 | 4.38 mg/L
B9 | > 30 mg/L
B10 | > 30 mg/L
B11 | 6.75 mg/L
B1 | 1.03 mg/L
B12 | 4.76 mg/L
B13 | > 30 mg/L
B14 | > 30 mg/L
B15 | > 30 mg/L
B16 | > 30 mg/L
B2 | 0.3 mg/L
B3 | 0.51 mg/L
B4 | 0.55 mg/L
B5 | 0.51 mg/L

Biological target: cyno PRLR on Baf3-cyPRLR cells (cyno)
Assay: cell-based or functional assay

Binder | Baf3-cyPRLR proliferation IC50
B6 | 10.4 mg/L
B2 | 1.76 mg/L
B3 | 305 mg/L
B4 | 100 mg/L
B5 | 41.6 mg/L

Biological target: T6, mouse PRLR on Baf3-mPRLR cells
Assay: cell-based or functional assay

Binder | Baf3-mPRLR proliferation IC50
B2 | > 30 mg/L
B3 | > 30 mg/L
B4 | > 30 mg/L
B5 | > 30 mg/L
